From FireProtDB (doi:10.1111/j.1432-1033.1992.tb17411.x) come the findings set out here.

The conditions of this series: Homo sapiens, Thermal, DSC, NaCl 0.13 M, whole UniProt chain shown.
The mark [1] stands for this setting: pH 5, Sodium acetate 0.02 M, reversible: yes.
Setting [2] is: pH 6.5, Sodium phosphate 0.01 M, reversible: no.
Where [3] appears, read: pH 8.1, HEPES 0.01 M, reversible: no.
Where [4] appears, read: pH 6.5, Sodium phosphate 0.01 M, reversible: yes.

B1: Cystatin-B wild type, P04080 (protein)
chain: MMCGAPSATQPATAETQHIADQVRSQLEEKENKKFPVFKAVSFKSQVVAGTNYFIKVHVGDEDFVHLRVFQSLPHENKPLTLSNYQTNKAKHDELTYF
On to B1, for which the Tm under setting [1] was 50.2 °C, the Tm under setting [2] turned out to be 64.9 °C and the Tm under setting [3] came to 65.9 °C. Besides, the “unfolding enthalpy (calorimetric)” value is, setting by setting: under setting [1], 70 kcal/mol; under setting [2], 78 kcal/mol; under setting [3], 81 kcal/mol. Besides, the “unfolding enthalpy (van 't Hoff)” value under setting [1] turned out to be 73 kcal/mol. The unfolding free energy (pH 8.1, 10 °C, HEPES 0.01 M, reversible: yes) stood at 6 kcal/mol; the unfolding free energy (pH 8.1, 25 °C, HEPES 0.01 M, reversible: yes) amounted to 5.9 kcal/mol; the unfolding free energy (pH 8.1, 45 °C, HEPES 0.01 M, reversible: yes) was 3.99 kcal/mol; the unfolding free energy (pH 8.1, 50 °C, HEPES 0.01 M, reversible: yes) came out at 3.2 kcal/mol.

B2: Cystatin-A wild type, P01040 (protein)
chain: MIPGGLSEAKPATPEIQEIVDKVKPQLEEKTNETYGKLEAVQYKTQVVAGTNYYIKVRAGDNKYMHLKVFKSLPGQNEDLVLTGYQVDKNKDDELTGF
On to B2, for which, under setting [1], the Tm was 90.8 °C, the “unfolding enthalpy (calorimetric)” value was 113 kcal/mol and the “unfolding enthalpy (van 't Hoff)” value was 129 kcal/mol. Besides, under setting [4], the Tm was 94.5 °C, the “unfolding enthalpy (calorimetric)” value was 116 kcal/mol and the “unfolding enthalpy (van 't Hoff)” value is 148 kcal/mol.
